Where “and” joins values, the source holds several entries; their conditions need not be identical. Equal entries are not always repeated. Where no end group is shown, it is not given here. The star is where a group is joined. Dnp = O=[N+]([O-])c1ccc(*)c([N+](=O)[O-])c1; 2Abz = Nc1ccccc1C(=O)O
Assays:
[1] = target: T1, Human plasma purified Factor Xa (Homo sapiens, UniProt P00742); assay: Factor Xa cleavage kinetics of quenched fluorescence (QF) peptide substrates, progress curve; format: biochemical; conditions: for Specificity Ratio (FIIa/FXa): FIIa kcat/KM divided by FXa kcat/KM, natural sequence QF substrates; for specificity ratio: X4/X3 positional scanning QF library (Table 4), FIIa/FXa
T1 construct: purchased Molecular Innovations, Inc, Novi Mich., USA; host or cells: human plasma
T1 sequence (P00742 41-179 limits assumed): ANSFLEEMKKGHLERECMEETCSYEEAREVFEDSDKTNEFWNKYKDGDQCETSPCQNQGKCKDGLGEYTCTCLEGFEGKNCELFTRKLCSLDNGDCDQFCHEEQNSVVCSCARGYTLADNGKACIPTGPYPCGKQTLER
T1 sequence (P00742 235-488 limits assumed): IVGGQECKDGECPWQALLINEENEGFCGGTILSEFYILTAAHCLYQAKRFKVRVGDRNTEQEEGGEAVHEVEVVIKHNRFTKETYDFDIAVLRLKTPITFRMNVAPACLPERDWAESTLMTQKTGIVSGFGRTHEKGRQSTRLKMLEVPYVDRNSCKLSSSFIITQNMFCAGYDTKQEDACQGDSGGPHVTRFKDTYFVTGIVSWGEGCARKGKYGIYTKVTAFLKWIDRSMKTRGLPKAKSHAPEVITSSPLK

[2] = target: Human plasma purified α-thrombin (Homo sapiens, UniProt P00734); assay: Thrombin cleavage kinetics of quenched fluorescence (QF) peptide substrates, progress curve; format: biochemical; conditions: for Fold-Improved (FpA): kcat/KM relative to FpA substrate Lys(Dnp)-DFLAEGGGVRIVGG-Lys(Abz); for Fold-Improved (PAR-1): kcat/KM relative to PAR 1 control substrate Lys(Dnp)-ATNATLDPRIVGG-Lys(Abz)

| Substance | Specificity Ratio (FIIa/FXa) [1] | Fold-Improved (FpA) [2] | Fold-Improved (PAR-1) [2] | specificity ratio [1] |
| --- | --- | --- | --- | --- |
| FpB: QF substrate Lys(Dnp)-X10-X1-IVGG-Lys(Abz), X10-X1 = DNEEGFFSAR (K(Dnp)DNEEGFFSARIVGGK(2Abz)) | 1 | 0.7 | 0.1 | – |
| Antithrombin: QF substrate Lys(Dnp)-X10-X1-IVGG-Lys(Abz), X10-X1 = ASTAVVIAGR (K(Dnp)ASTAVVIAGRIVGGK(2Abz)) | 0 | 0.001 | 0.000 | – |
| Thrombin (2): QF substrate Lys(Dnp)-X10-X1-IVGG-Lys(Abz), X10-X1 = SEYQTFFNPR (K(Dnp)SEYQTFFNPRIVGGK(Abz)) | 0 | 48.7 | 7.1 | – |
| Factor V (2): QF substrate Lys(Dnp)-X10-X1-IVGG-Lys(Abz), X10-X1 = NRLAAALGIR (K(Dnp)NRLAAALGIRIVGGK(2Abz)) | 302 | 1.8 | 0.3 | – |
| Factor V (3): QF substrate Lys(Dnp)-X10-X1-IVGG-Lys(Abz), X10-X1 = PDNIAAWYLR (K(Dnp)PDNIAAWYLRIVGGK(2Abz)) | 7 | 0.2 | 0.03 | – |
| Protein C: QF substrate Lys(Dnp)-X10-X1-IVGG-Lys(Abz), X10-X1 = EDQEDQVDPR (K(Dnp)EDQEDQVDPRIVGGK(2Abz)) | 133 | 4.4 | 0.6 | – |
| Factor VIII (2): QF substrate Lys(Dnp)-X10-X1-IVGG-Lys(Abz), X10-X1 = YDEDENQSPR (K(Dnp)YDEDENQSPRIVGGK(2Abz)) | 13 | 2.3 | 0.3 | – |
| Thrombin (3): QF substrate Lys(Dnp)-X10-X1-IVGG-Lys(Abz), X10-X1 = EDSDRAIEGR (K(Dnp)EDSDRAIEGRIVGGK(2Abz)) | 141 | 0.000 | 0.000 | – |
| PAR1 (2): QF substrate with X8-X1 = TNATLDPR, prime side IVGG (KTNATLDPRIVGGK) | 4 | – | – | – |
| PAR 1: QF substrate Lys(Dnp)-X10-X1-IVGG-Lys(Abz), X10-X1 = KATNATLDPR (Table 3 r16) (K(Dnp)ATNATLDPRIVGGK(2Abz); also: template implies Lys(Dnp) before X10 K, letters have one K, taken as Lys(Dnp)) | – | 9.7 and 8.9 and 8.2 | 1.4 and 1.3 and 1.2 | – |
| Factor V (1): QF substrate Lys(Dnp)-X10-X1-IVGG-Lys(Abz), X10-X1 = HTHHAPLSPR (K(Dnp)HTHHAPLSPRIVGGK(Abz)) | 2 | 77.2 | 11.2 | – |
| MKPR: QF library substrate Lys(Dnp)-ATNATX4X3PRIVGG-Lys(Abz) with X4-X1 = MKPR (K(Dnp)ATNATMKPRIVGGK(2Abz)) | – | – | – | ~300 fold |
| FpA_P: QF substrate Lys(Dnp)-X10-X1-IVGG-Lys(Abz), X10-X1 = DFLAEGGGPR; FpA with proline at X2 (K(Dnp)DFLAEGGGPRIVGGK(2Abz)) | 6914 | 97.8 | 14.2 | – |
| WTPR: QF library substrate Lys(Dnp)-ATNATX4X3PRIVGG-Lys(Abz) with X4-X1 = WTPR (K(Dnp)ATNATWTPRIVGGK(2Abz)) | – | – | – | ~300 fold |
| PAR1 (3): QF substrate with X6-X1 = ATLDPR, prime side IVGG (KATLDPRIVGGK) | 4 | – | – | – |
| Factor XI: QF substrate Lys(Dnp)-X10-X1-IVGG-Lys(Abz), X10-X1 = NESTTKIKPR (K(Dnp)NESTTKIKPRIVGGK(2Abz)) | 559 | 49.2 | 7.1 | – |
| Thrombin (1): QF substrate Lys(Dnp)-X10-X1-IVGG-Lys(Abz), X10-X1 = DQVTVAMTPR (K(Dnp)DQVTVAMTPRIVGGK(2Abz)) | 64 | 73.6 | 10.7 | – |
| PAR 4: QF substrate Lys(Dnp)-X10-X1-IVGG-Lys(Abz), X10-X1 = STPSILPAPR (K(Dnp)STPSILPAPRIVGGK(2Abz)) | 40 | 23.1 | 3.4 | – |
| Osteopontin: QF substrate Lys(Dnp)-X10-X1-IVGG-Lys(Abz), X10-X1 = RGDSVVYGLR (K(Dnp)RGDSVVYGLRIVGGK(Abz)) | 239 | 1.0 | 0.1 | – |
| Lys(Dnp)-DFLAEGGGVRIVGG-Lys(Abz) (K(Dnp)DFLAEGGGVRIVGGK(2Abz)) [FpA, reference compound] | 121 | – | – | – |
| TAFI: QF substrate Lys(Dnp)-X10-X1-IVGG-Lys(Abz), X10-X1 = QISNDTVSPR (K(Dnp)QISNDTVSPRIVGGK(Abz)) | 16 | 13.1 | 1.9 | – |
| PAR 3: QF substrate Lys(Dnp)-X10-X1-IVGG-Lys(Abz), X10-X1 = NLAKPTLPIK (K(Dnp)NLAKPTLPIKIVGGK(2Abz)) | 5 | 0.04 | 0.01 | – |
| Factor XIII: QF substrate Lys(Dnp)-X10-X1-IVGG-Lys(Abz), X10-X1 = TVELQGVVPR (K(Dnp)TVELQGVVPRIVGGK(Abz)) | 114 | 28.7 | 4.2 | – |
| MTPR: QF library substrate Lys(Dnp)-ATNATX4X3PRIVGG-Lys(Abz) with X4-X1 = MTPR (K(Dnp)ATNATMTPRIVGGK(2Abz)) | – | – | – | ~300 fold |
| Factor VIII (1): QF substrate Lys(Dnp)-X10-X1-IVGG-Lys(Abz), X10-X1 = LSKNNAIEPR (K(Dnp)LSKNNAIEPRIVGGK(2Abz)) | – | 32.3 | 4.7 | – |

Reference: US20160024487A1, “THROMBIN SENSITIVE COAGULATION FACTOR X MOLECULES” (NOVO NORDISK A/S, priority 2013, published 2016)
